# Measurements published in patent US20110212843.
# Assays:
# [1] = molecular target: NF-kB p65 (Rel A) homodimer (UniProt Q04206); conditions: 1:1 stoichiometry
# NF-kB p50 homodimer = NF-kB p50 homodimer (UniProt P19838); conditions: also captured on SELDI array; lost on more stringent wash
# Chain of NF-kB p50 homodimer (P19838 1-433): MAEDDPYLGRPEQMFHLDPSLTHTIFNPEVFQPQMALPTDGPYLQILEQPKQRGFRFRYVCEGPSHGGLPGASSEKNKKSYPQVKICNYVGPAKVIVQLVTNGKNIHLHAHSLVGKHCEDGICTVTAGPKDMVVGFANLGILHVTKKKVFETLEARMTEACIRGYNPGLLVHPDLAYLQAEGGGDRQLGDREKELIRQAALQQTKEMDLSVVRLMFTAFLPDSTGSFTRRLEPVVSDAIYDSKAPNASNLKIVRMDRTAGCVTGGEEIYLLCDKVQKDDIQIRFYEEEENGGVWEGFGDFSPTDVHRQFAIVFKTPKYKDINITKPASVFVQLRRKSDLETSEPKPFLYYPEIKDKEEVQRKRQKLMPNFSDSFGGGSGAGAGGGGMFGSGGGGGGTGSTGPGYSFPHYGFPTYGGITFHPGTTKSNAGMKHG
# Chain of NF-kB p65 (Rel A) homodimer (Q04206 whole entry): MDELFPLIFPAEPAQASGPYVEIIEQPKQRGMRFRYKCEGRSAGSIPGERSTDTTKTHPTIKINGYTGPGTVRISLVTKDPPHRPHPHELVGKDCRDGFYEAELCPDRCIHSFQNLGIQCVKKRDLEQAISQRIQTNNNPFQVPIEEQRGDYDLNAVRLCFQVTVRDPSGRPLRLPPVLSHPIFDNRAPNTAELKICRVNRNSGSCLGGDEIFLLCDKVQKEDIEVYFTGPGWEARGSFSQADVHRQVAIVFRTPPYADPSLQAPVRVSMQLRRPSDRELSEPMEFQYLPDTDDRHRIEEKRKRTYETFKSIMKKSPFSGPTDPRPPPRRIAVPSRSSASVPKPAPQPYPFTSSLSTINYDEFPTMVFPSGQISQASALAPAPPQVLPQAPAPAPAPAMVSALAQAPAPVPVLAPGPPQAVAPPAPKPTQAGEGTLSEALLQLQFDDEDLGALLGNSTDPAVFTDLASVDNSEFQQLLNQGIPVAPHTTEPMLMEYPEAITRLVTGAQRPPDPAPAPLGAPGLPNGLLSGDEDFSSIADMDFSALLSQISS
substance,measurement,setting,value
IgkB 22-mer duplex (NF-kB promoter element),Kd,[1],4 nM
same,Kd,NF-kB p50 homodimer,4 nM
